Assay results from publication PMC11880808.
pKd: −log10 of the molar value.

Columns and labels:
[1] = target: cynomolgus monkey IL-2 receptor beta and gamma (IL-2Rβγ) complex (cynomolgus monkey) (UniProt Q38J85); experiment: BLI; Octet; who was immobilised, temperature and buffer are not told
[2] = target: cynomolgus monkey IL-2 receptor alpha (IL-2Rα) (cynomolgus monkey); experiment: as above

Substance “recombinant human IL-2 (from UniProt P60568 21-153) (ligand)” has a pKd [1] of 8.89 and a pKd [2] of 7.70.
